Test results from patent publication US20100099142.

B1: hexa-His-Xa-Met-AP M206A, Q233A (protein)
chain: MAISIKTPEDIEKMRVAGRLAAEVLEMIEPYVKPGVSTGELDRICNDYIVNEQHAVSACLGYHGYPKSVCISINEVVCHGIPDDAKLLKDGDIVNIDVTVIKDGFHGDTSKMFIVGKPTIMGERLCRITQESLYLALRMVKPGINLREIGAAIQKFVEAEGFSVVREYCGHGIGRGFHEEPQVLHYDSRETNVVLKPGMTFTIEPAVNAGKKEIRTMKDGWTVKTKDRSLSAAYEHTIVVTDNGCEILTLRKDDTIPAIISHDE
B2: Met-AP (M206A) (protein)
chain: MAISIKTPEDIEKMRVAGRLAAEVLEMIEPYVKPGVSTGELDRICNDYIVNEQHAVSACLGYHGYPKSVCISINEVVCHGIPDDAKLLKDGDIVNIDVTVIKDGFHGDTSKMFIVGKPTIMGERLCRITQESLYLALRMVKPGINLREIGAAIQKFVEAEGFSVVREYCGHGIGRGFHEEPQVLHYDSRETNVVLKPGMTFTIEPAVNAGKKEIRTMKDGWTVKTKDRSLSAQYEHTIVVTDNGCEILTLRKDDTIPAIISHDE

Target: Met-hIL-21, Q9HBE4
Sequence (Q9HBE4 whole entry, looked up): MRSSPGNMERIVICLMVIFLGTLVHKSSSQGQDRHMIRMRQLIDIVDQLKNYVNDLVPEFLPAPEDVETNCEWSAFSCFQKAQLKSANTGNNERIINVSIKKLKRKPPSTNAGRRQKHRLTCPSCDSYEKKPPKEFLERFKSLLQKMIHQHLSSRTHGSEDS

| Protein | Met-free hIL-21 generated (removal of initiator Met, enzyme activity) | cleavage of Met-hIL-21 in 44 h (enzyme activity) | removal of initiator Methionine, assayed by MALDI-TOF |
| --- | --- | --- | --- |
| B1 | ˜65% Met-free hIL-21 | In 44 h. more than 90% cleavage of Met-hIL-21 could be observed | removal of Methionine from Met-IL21 below detection limits of Met-IL21 could be performed |
| B2 | – | – | removal of Methionine from Met-IL21 below detection limits of Met-IL21 could be performed |
